Publication PMC8298264, “Function of cofactor Akirin2 in the regulation of gene expression in model human neutrophil-like HL60 cells” (Bioscience Reports, 2021)

B1: sp¦P84103¦SRSF3_HUMAN (protein, UniProt P84103 1-164, looked up)
Serine/arginine-rich splicing …: MHRDSCPLDCKVYVGNLGNNGNKTELERAFGYYGPLRSVWVARNPPGFAFVEFEDPRDAADAVRELDGRTLCGCRVRVELSNGEKRSRNRGPPPSWGRRPRDDYRRRSPPPRRRSPRRRSFSRSRSRSLSRDRRRERSLSRERNHKPSRSFSRSRSRSRSNERK
B2: sp¦P04899¦GNAI2_HUMAN (protein, UniProt P04899 2-355, looked up)
Guanine nucleotide-binding …: GCTVSAEDKAAAERSKMIDKNLREDGEKAAREVKLLLLGAGESGKSTIVKQMKIIHEDGYSEEECRQYRAVVYSNTIQSIMAIVKAMGNLQIDFADPSRADDARQLFALSCTAEEQGVLPDDLSGVIRRLWADHGVQACFGRSREYQLNDSAAYYLNDLERIAQSDYIPTQQDVLRTRVKTTGIVETHFTFKDLHFKMFDVGGQRSERKKWIHCFEGVTAIIFCVALSAYDLVLAEDEEMNRMHESMKLFDSICNNKWFTDTSIILFLNKKDLFEEKITHSPLTICFPEYTGANKYDEAASYIQSKFEDLNKRKDTKEIYTHFTCATDTKNVQFVFDAVTDVIIKNNLKDCGLF
B3: sp¦Q8N5K1¦CISD2_HUMAN (protein, UniProt Q8N5K1 2-135, looked up)
CDGSH iron-sulfur …: VLESVARIVKVQLPAYLKRLPVPESITGFARLTVSEWLRLLPFLGVLALLGYLAVRPFLPKKKQQKDSLINLKIQKENPKVVNEINIEDLCLTKAAYCRCWRSKTFPACDGSHNKHNELTGDNVGPLILKKKEV
B4: sp¦Q9UL25¦RAB21_HUMAN (protein, UniProt Q9UL25 2-222, looked up)
Ras-related protein Rab-21: AAAGGGGGGAAAAGRAYSFKVVLLGEGCVGKTSLVLRYCENKFNDKHITTLQASFLTKKLNIGGKRVNLAIWDTAGQERFHALGPIYYRDSNGAILVYDITDEDSFQKVKNWVKELRKMLGNEICLCIVGNKIDLEKERHVSIQEAESYAESVGAKHYHTSAKQNKGIEELFLDLCKRMIETAQVDERAKGNGSSQPGTARRGVQIIDDEPQAQTSGGGCC
B5: sp¦Q13464¦ROCK1_HUMAN (protein, UniProt Q13464 2-1354, looked up)
Rho-associated protein kinase …: STGDSFETRFEKMDNLLRDPKSEVNSDCLLDGLDALVYDLDFPALRKNKNIDNFLSRYKDTINKIRDLRMKAEDYEVVKVIGRGAFGEVQLVRHKSTRKVYAMKLLSKFEMIKRSDSAFFWEERDIMAFANSPWVVQLFYAFQDDRYLYMVMEYMPGGDLVNLMSNYDVPEKWARFYTAEVVLALDAIHSMGFIHRDVKPDNMLLDKSGHLKLADFGTCMKMNKEGMVRCDTAVGTPDYISPEVLKSQGGDGYYGRECDWWSVGVFLYEMLVGDTPFYADSLVGTYSKIMNHKNSLTFPDDNDISKEAKNLICAFLTDREVRLGRNGVEEIKRHLFFKNDQWAWETLRDTVAPVVPDLSSDIDTSNFDDLEEDKGEEETFPIPKAFVGNQLPFVGFTYYSNRRYLSSANPNDNRTSSNADKSLQESLQKTIYKLEEQLHNEMQLKDEMEQKCRTSNIKLDKIMKELDEEGNQRRNLESTVSQIEKEKMLLQHRINEYQRKAEQENEKRRNVENEVSTLKDQLEDLKKVSQNSQLANEKLSQLQKQLEEANDLLRTESDTAVRLRKSHTEMSKSISQLESLNRELQERNRILENSKSQTDKDYYQLQAILEAERRDRGHDSEMIGDLQARITSLQEEVKHLKHNLEKVEGERKEAQDMLNHSEKEKNNLEIDLNYKLKSLQQRLEQEVNEHKVTKARLTDKHQSIEEAKSVAMCEMEKKLKEEREAREKAENRVVQIEKQCSMLDVDLKQSQQKLEHLTGNKERMEDEVKNLTLQLEQESNKRLLLQNELKTQAFEADNLKGLEKQMKQEINTLLEAKRLLEFELAQLTKQYRGNEGQMRELQDQLEAEQYFSTLYKTQVKELKEEIEEKNRENLKKIQELQNEKETLATQLDLAETKAESEQLARGLLEEQYFELTQESKKAASRNRQEITDKDHTVSRLEEANSMLTKDIEILRRENEELTEKMKKAEEEYKLEKEEEISNLKAAFEKNINTERTLKTQAVNKLAEIMNRKDFKIDRKKANTQDLRKKEKENRKLQLELNQEREKFNQMVVKHQKELNDMQAQLVEECAHRNELQMQLASKESDIEQLRAKLLDLSDSTSVASFPSADETDGNLPESRIEGWLSVPNRGNIKRYGWKKQYVVVSSKKILFYNDEQDKEQSNPSMVLDIDKLFHVRPVTQGDVYRAETEEIPKIFQILYANEGECRKDVEMEPVQQAEKTNFQNHKGHEFIPTLYHFPANCDACAKPLWHVFKPPPALECRRCHVKCHRDHLDKKEDLICPCKVSYDVTSARDMLLLACSQDEQKKWVTHLVKKIPKNPPSGFVRASPRTLSTRSTANQSFRKVVKNTSGKTS
B6: sp¦P27824¦CALX_HUMAN (protein, UniProt P27824 21-592, looked up)
Calnexin: HDGHDDDVIDIEDDLDDVIEEVEDSKPDTTAPPSSPKVTYKAPVPTGEVYFADSFDRGTLSGWILSKAKKDDTDDEIAKYDGKWEVEEMKESKLPGDKGLVLMSRAKHHAISAKLNKPFLFDTKPLIVQYEVNFQNGIECGGAYVKLLSKTPELNLDQFHDKTPYTIMFGPDKCGEDYKLHFIFRHKNPKTGIYEEKHAKRPDADLKTYFTDKKTHLYTLILNPDNSFEILVDQSVVNSGNLLNDMTPPVNPSREIEDPEDRKPEDWDERPKIPDPEAVKPDDWDEDAPAKIPDEEATKPEGWLDDEPEYVPDPDAEKPEDWDEDMDGEWEAPQIANPRCESAPGCGVWQRPVIDNPNYKGKWKPPMIDNPSYQGIWKPRKIPNPDFFEDLEPFRMTPFSAIGLELWSMTSDIFFDNFIICADRRIVDDWANDGWGLKKAADGAAEPGVVGQMIEAAEERPWLWVVYILTVALPVFLVILFCCSGKKQTSGMEYKKTDAPQPDVKEEEEEKEEEKDKGDEEEEGEEKLEEKQKSDAEEDGGTVSQEEEDRKPKAEEDEILNRSPRNRKPRRE
B7: sp¦O43592¦XPOT_HUMAN (protein, UniProt O43592 1-962, looked up)
Exportin-T: MDEQALLGLNPNADSDFRQRALAYFEQLKISPDAWQVCAEALAQRTYSDDHVKFFCFQVLEHQVKYKYSELTTVQQQLIRETLISWLQAQMLNPQPEKTFIRNKAAQVFALLFVTEYLTKWPKFFFDILSVVDLNPRGVDLYLRILMAIDSELVDRDVVHTSEEARRNTLIKDTMREQCIPNLVESWYQILQNYQFTNSEVTCQCLEVVGAYVSWIDLSLIANDRFINMLLGHMSIEVLREEACDCLFEVVNKGMDPVDKMKLVESLCQVLQSAGFFSIDQEEDVDFLARFSKLVNGMGQSLIVSWSKLIKNGDIKNAQEALQAIETKVALMLQLLIHEDDDISSNIIGFCYDYLHILKQLTVLSDQQKANVEAIMLAVMKKLTYDEEYNFENEGEDEAMFVEYRKQLKLLLDRLAQVSPELLLASVRRVFSSTLQNWQTTRFMEVEVAIRLLYMLAEALPVSHGAHFSGDVSKASALQDMMRTLVTSGVSSYQHTSVTLEFFETVVRYEKFFTVEPQHIPCVLMAFLDHRGLRHSSAKVRSRTAYLFSRFVKSLNKQMNPFIEDILNRIQDLLELSPPENGHQSLLSSDDQLFIYETAGVLIVNSEYPAERKQALMRNLLTPLMEKFKILLEKLMLAQDEERQASLADCLNHAVGFASRTSKAFSNKQTVKQCGCSEVYLDCLQTFLPALSCPLQKDILRSGVRTFLHRMIICLEEEVLPFIPSASEHMLKDCEAKDLQEFIPLINQITAKFKIQVSPFLQQMFMPLLHAIFEVLLRPAEENDQSAALEKQMLRRSYFAFLQTVTGSGMSEVIANQGAENVERVLVTVIQGAVEYPDPIAQKTCFIILSKLVELWGGKDGPVGFADFVYKHIVPACFLAPLKQTFDLADAQTVLALSECAVTLKTIHLKRGPECVQYLQQEYLPSLQVAPEIIQEFCQALQQPDAKVFKNYLKVFFQRAKP

Test system: human HL60 cells
Test: SWATH-MS proteomics, differential protein representation, akirin2 KO vs WT HL60 cells
Type: cell-based
Details: akirin2 KO vs WT HL60 cells, sheet "Under-represented in KO"
Summary of the method: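 First, proteins from wild-type and knockout cells are digested with trypsin by FASP. Next, pooled IDA runs generate a reference ion library. Then six samples of 5 µg each are acquired by data-independent SWATH, and protein areas are normalized to the summed area of all detected proteins.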

| Molecule | Fold Change | Log (Fold Change) | Fold Change (KO vs WT) | Log (Fold Change) (KO vs WT) |
| --- | --- | --- | --- | --- |
| B1 | 0.2712 | -0.5667 |  |  |
| B2 |  |  | 0.61 | -0.2146 |
| B3 |  |  | 0.6126 | -0.2128 |
| B4 |  |  | 0.6117 | -0.2135 |
| B5 |  |  | 0.6099 | -0.2148 |
| B6 |  |  | 0.6087 | -0.2156 |
| B7 |  |  | 0.6107 | -0.2142 |
